Test: soluble on expression in E. coli; label from the status in PepcDB or PDB records

Row | Sequence | soluble on expression in E. coli
1 | MGSSHHHHHHSSGLVPRGSHMGVKSLVPQELIEKIKLISPGTELRKALDDIINANFGALIFLVDDPKKYEDVIQGGFWLDTDFSAEKLYELSKMDGAIVLSEDITKIYYANVHLVPDPTIPTGETGTRHRTAERLAKQTGKVVIAVSRRRNIISLYYKNYKYVVNQVDFLISKVTQAISTLEKYKDNFNKLLSELEVLELENRVTLADVVRTLAKGFELLRIVEEIRPYIVELGEEGRLARMQLRELTEDVDDLLVLLIMDYSSEEVEEETAQNILQDFITRREPSPISISRVLGYDVQQAAQLDDVLVSARGYRLLKTVARIPLSIGYNVVRMFKTLDQISKASVEDLKKVEGIGEKRARAISESISSLKHRKTSE | soluble
2 | MGSDKIHHHHHHMAKIAYILLCHKDPDAIIMQAERLTAAGDYMSIHFDARARKADFARIRKALADNPNVTFARRRIKCGWGEWSLVQATLNAIEAAVDEFPRATHFYMLSGDCMAIKTAEYAHSFLDAQDKDYIESFDYFESDWIKTGWKEERLIYRHWFNERTQKRRFYAMFQAQKRLGLTREIPSDIQVMIGSQWWCLRRRTIEWILDFTRKRRDVMQFFATTWIPDETFFQTLVRHLIPEDEIDPRTLTFLMFSDYGMPVSFYNDHYDLLLSQDFLFARKISPEAKELKARLGRLYAAHGVQFQISNEGRNLYKFLTGRGRIGRRFSMRFWETESTLGRERELMILVCKKWHVAKRLLDQIRQVTNVPSIEYLFNEEGTPLPDLGGIQATLEKRTRHRRALMRMLFEYFDTDRLVICLDPTNLELMHDFFSDRSVTRMLEIECQFTDEYLIGHSYRVGLAGERTPKATLERLLPTIRNEMTYEADRIRDAGFARYGRIHQTSTPEENADKVAEFLSIPWDQALRITQTDHLFAD | not soluble
3 | MSLIRDMQLSRFSIPFAAPIRVGGQELNKRDGLLVAVRDDQGHTGWGEAAPLPGLDTISLDQCQGELCPIRKAFADQALNWDSFSLTAPMMGLCPEIPGLNPISAFGVESALAWLGLCSGQWGIAGADELGIAVNGLFVPSPDPDRLPAQAKQLKASGFSTVKIKIGRMDSDDEIRQILELDSLFNHKLALRLDANRSLDFAQYQSYFEALKHLNIEYVEEPLKPEYDFFEAAQIPWPLALDESLESYANLDEPFPKSLGAVILKPGSFQGVHGMAQAMEHLHTQGIKTVLSSSFNNTMGMSMLGLLANLYAPETAHGLDTLKYFQPSDLSLGLSIAKGRMAIPVDLFGGGLNLASGLMEEIAEGHHHHHH | soluble
4 | MGSSEVSIIPGLQKEEKAAVERRRLHVLKALKKLRIEADEAPVVAVLGSGGGLRAHIACLGVLSEMKEQGLLDAVTYLAGVSGSTWAISSLYTNDGDMEALEADLKHRFTRQEWDLAKSLQKTIQAARSENYSLTDFWAYMVISKQTRELPESHLSNMKKPVEEGTLPYPIFAAIDNDLQPSWQEARAPETWFEFTPHHAGFSALGAFVSITHFGSKFKKGRLVRTHPERDLTFLRGLWGSALGNTEVIREYIFDQLRNLTLKGLWRRAVANAKSIGHLIFARLLRLQESSQGEHPPPEDEGGEPEHTWLTEMLENWTRTSLEKQEQPHEDPERKGSLSNLMDFVKKTGICASKWEWGTTHNFLYKHGGIRDKIMSSRKHLHLVDAGLAINTPFPLVLPPTREVHLILSFDFSAGDPFETIRATTDYCRRHKIPFPQVEEAELDLWSKAPASCYILKGETGPVVMHFPLFNIDACGGDIEAWSDTYDTFKLADTYTLDVVVLLLALAKKNVRENKKKILRELMNVAGLYYPKDSARSCCLA | soluble
5 | GMTFRDTSAIASWHAHVYFDASSRDAAWTLREQIEAHWSGKLQLGRFHERPVGPHPMWSYQLAFTQEQFADLVGWLTLNHGALDIFLHPNTGDALRDHRDAAVWIGHSHELVLSALN | soluble
6 | MEKSEGGDQPESAGEKEQVHQGADQQVQREKRRRSVSPDGGDVGSVKMADVVLEGASDVAVTKKRKITEEAAAAAKVNSEAITSATGPNTSTQAAASANEEDDKDKEDDKDAKKKKNRCGECRKKVGLTGFQCRCGGLYCAVHRYSDKHNCTFDYREHGAQEIRRNNPVVVGEKIQKILEHHHHHH | not soluble
7 | MSLKKAAIITIGSELLEGLILNKNAQFLCQELKNLGYRVVKVSTVGDDLISISEEVKTLLLKVDLLILTGGLGPTQDDLTRDAVAKVLNRSLKLNEELLSKIKEKIKKYHSEIPQNIERQALVIDGAEVLDNPVGSAPGQLLTVDGKIVILLPGPPRELIPMFNALKDRLRTPDALYQVVLKYYSIPEAVLEDLLKDILYSQNIVEVATMADHVEGVRLRLTTHMKNKEYLDEMVKKILDKTGEHLYGVNDEKMEEVVVRLLKDRKKTLAVAESCTGGMLSSLVVNVPGASEVFIGGVVAYSNDLKKHILGVREDTLKKHGAVSEECVQEMTEGLKKLTGADICVSISGIAGPSGGTPEKPVGTVFIDIFEHEHITMRYNFTGDRNMIRTRSAMMALENLRKYLKGRERVEGGSHHHHHH | soluble
8 | MSSGVAAPQPSSCVPSRVSVLSMDFEDIYRFFQDPPPHYLSKELAVCYVLAVLRHEDSYGTELIQHLETHWPNYRLSDTVLYTALKFLEDEQIISGYWKKVEGRGRPRRMYQLAQANDDRSRDLAQLWERYLSSSAATDRQLIPVEAR | soluble
9 | MGHHHHHHSHINTPEQTVPYGLSNYRGSFRGKRSAGPLPGNLQLSHRPHLRCACVGRYDKACLHFCTQTLDVSSNSRTAEKTDKEEEGKVRGANRGLCQRRLKSRTNKASRL | not soluble
10 | FSSALTSKDAARLADETDNIAEALRAAETEGVALQDMLQAYLPANGMVRVVNGDQKAVMTITKEKAYKDFPLSFHSGETADVRKPDGKLFAEAAVPVIWTDGQVVSLQLVERLENTEESLFLLK | not soluble
11 | MRGSHHHHHHGSMAVPPTYADLGKSARDVFTKGYGFGLIKLDLKTKSENGLEFTSSGSANTETTKVNGSLETKYRWTEYGLTFTEKWNTDNTLGTEITVEDQLARGLKLTFDSSFSPNTGKKNAKIKTGYKREHINLGCDVDFDIAGPSIRGALVLGYEGWLAGYQMNFETSKSRVTQSNFAVGYKTDEFQLHTNVNDGTEFGGSIYQKVNKKLETAVNLAWTAGNSNTRFGIAAKYQVDPDACFSAKVNNSSLIGLGYTQTLKPGIKLTLSALLDGKNVNAGGHKLGLGLEFQA | soluble
12 | MASTGLRVDLYEEHGRVGMPEHCTGIVSERTVNTIGREARETIIDSYDSLEIRFRGETLAVLDVGTVYRLDRVRLEELLLESLMSLGGRAQLGKRVHSVGIEGSVKAGGSEARYDAVILADGAHGELHRMLDLGYRGDYYYGLNILVPGKRESTILVDFILDRGLAFTWDVPTVGSVSVAGAMGTLAGVKRFFEVLKPRAFKVYGGRIPAGPPAERLRRGRVYVVGDAGGLVKPLSGGGLYPNAKAAKLAASLIKRGLDVGEALEKSLSIVSHELRAQHAVARLVYGTRVLETISRAVGGAPLRLRLDYDTHHQLVISTLSQVGALSSQRLAAAALRGGGLEAPLSLVKVLYHSSASAYKRLASGRLPGVLEHHHHHH | not soluble
13 | MASDENIGADGEQKPSRPFLRKGQGTARFRMPRNNKTSAGAPPTSELSSASSPSINVPRFSLSNALPNSARTVDSGISNEDETRPPTTASLPMDQPSLSSSPENRLNPAPSVAEEHGHSGQHAEEEEDNDTDEVSAMPSFVPDEPSTLVNSDHELSDDALKYKNAAAEFKAFERRMDSMRSASTITTSLATPSSCAPSNSSEPPTRSTPIMNDLGVGPNNHNWPSSMQELSGISLETPQARPLGSNRINQLVRSEAQTGISLLQHHERPTVTAPLRRNDMMNSSRQNPQNGNVQDENRPEHVYDQPIHVPGSSLDRQKLEIEIRRHRNLNIQLRDTIAHLDYAEESVHTTKRQLEEKISEVNNFKKELIEEFKKCKKGVEEEFEKKFEKIKEDYDELYEKLKRDQRDLERDQKILKKGTGERNKEFTETIATLRDKLRASETKNAQYRQDIRVRDEKLKKKDEEIEKLQKDGNRLKSTLQTLEKRVKQLRTEKERDDKEKEMFAKVAMNRKTSNPVPPVLNQSVPISITSNGPSRHPSSSSLTTFRKPSTSNRERGVSWADEPNEQSLEAVPQEFLMMPVKEMPGKFGKCTIYRDSLGETSKVTDTIANGLLFEYSNGDLRWVNRQNAVNIYISAVDKTVRIDLPTYNISIIHTFQRQVEVLRPGNNITLISIKRREVRTDLIYQNGMYKTEIFNRDGRYVTKDFSNQEVSRKYNPGTHTYRDNQCRYVLVTDYNDFELVEPEFRLRWYQGDPTGLNNQYILKIIGRPECSEKTLRLEVNLSTCEGTLETAEMIGDKRRKTTLFQWKK | not soluble
14 | HHHHHHENLYFQGSMDALQLANSAFAVDLFKQLSEKEPLGNVLFSPIALSTSLSLAQVGAKGDTANEIGQVLHFENVKDVPFGFQTVTSDVNKLSSFYSLKLIKRLYVDKSLNLSTEFISSTKRPYAKELETVDFKDKLEETKGQINNSIKDLTDGHFENILADNSVNDQTKILVVNAAYFVGKWMKKFSESETKESPFRVNKTDTKPVQMMNMEATFSMGNIDSINSKIIELPFQNKHLSMFILLPKDVEDESTGLEKIEKQLNSESLSQWTNPSTMANAKVKLSIPKFKVEKMIDPKASLENLGLKHIFSEDTSDFSGMSETKGVALSNVIHKVSLEITEDGGDSIEVPGARILQHKDELNADHPFIYIIRHNKTRNIIFFGKFSSP | soluble
15 | LGVDRAKQIQALAKGTFGINIALDAFTLELRLLVEQIEFIEEQISVIEEAIDQVMEEMRPSKDTAYRHVLETIPGIGPVLAASIIGEIGDINRFPNAKALVAYAGLDATVRSSGQFEGTRNRISKRGSPVLRHSIWLAAVSARRFNPEMKEFFEKKRSEGKHTLVATGAVARRMVHLIYSLWKDNRPFDPNYQWSPTNSR | soluble
16 | MLRTPNNRHKIDSILVLGTAQYDGVPSRQFAARLRHAAKLWRLHEIQHVYTVGGKLPGDRFTEAEVAREYLIKEGVDPDLIFVSAVGNDTVSSYEALDPEKLGRVLIVTDPNHSYRAVRIARRMGFDAKPSPTTYSPAKFPSIVYFLTLSHEWGGVVVQDVSRLLGERVADKVEASLRAIQGLLRPSRRARHEQLRRLKKLEHHHHHH | soluble
17 | MVTVRYYATLRPITKKKEETFNGISKISELLERLKVEYGSEFTKQMYDGNNLFKNVIILVNGNNITSMKGLDTEIKDDDKIDLFPPVAGG | soluble
18 | MEFMKLAIEEAKKGMEKGDGGPFGAVIVKDGKVIGSGHNMVLVTKDPTAHAEVTAIRNTCKNVDNFDLSGCQLYTSCYPCPMCMGAALWSRVDAIYYGATSQDAANIGFGDHEFHEFLQNPKSDDKRKLEQFKVDNYLEPFQLWSKKDNKELY | not soluble
19 | MGHHHHHHSHMCVARVYHGWLFEGLGRDKAEELLQLPDTKVGSFMIRESETKKGFYSLSVRHRQVKHYRIFRLPNNWYYISPRLTFQCLEDLVNHYSEVADGLCCVLTTPCLTQSTAAPAVRASSSPVTLRQKTVDWRRVSRLQEDPEGTENPLGVDESLFSYGLRESIASYLSLTSEDNTSFDRKKKSISLMYGGSKRKSSFFSSPPYFED | soluble
20 | MPANKLVALTFDDGPDNVLTARVLDKLDKYNVKATFMVVGQRVNDSTAAIIRRMVNSGHEIGNHSWSYSGMANMSPDQIRKSIADTNAVIQKYAGTTPKFFRPPNLETSPTLFNNVDLVFVGGLTANDWIPSTTAEQRAAAVINGVRDGTIILLHDVQPEPHPTPEALDIIIPTLKSRGYEFVTLTELFTLKGVPIDPSVKRMYNSVPLEHHHHHH | soluble
21 | SSNPRSLEEEKYDMSGARLALILCVTKAREGSEEDLDALEHMFRQLRFESTMKRDPTAEQFQEELEKFQQAIDSREDPVSCAFVVLMAHGREGFLKGEDGEMVKLENLFEALNNKNCQALRAKPKVYIIQACRGEQRDPGETVGGDEIVMVIKDSPQTIPTYTDALHVYSTVEGYIAYRHDQKGSCFIQTLVDVFTKRKGHILELLTEVTRRMAEAELVQEGKARKTNPEIQSTLRKRLYLQ | soluble
22 | VIHLDSKNFDSFLASHEIAVVDFWAEWCAPCLILAPIIEELAEDYPQVGFGKLNSDENPDIAARYGVMSLPTVIFFKDGEPVDEIIGAVPREEIEIRIKNLLGE | soluble
